Experiment [1] concerns the target T1, Chymotrypsin (Worthington Biochemical Corp.) (Bos taurus (Bovine), UniProt P00766 1-13; P00766 16-146; P00766 149-245). The experiment can be described thus: ELISA, chymotrypsin coated on plate, detection by HRP-conjugated S-Tag antibody.
Experiment [2] has as its target T1, Chymotrypsin (Worthington Biochemical …). The experiment can be described thus: cell-based or functional assay.

B1: α-chymotrypsin-binding peptide No. 2 (SPINK2 mutant) (designed binder)
chain: DPQFGLFSKYRTPNCMRHRRHFCTMVYKPVCGSDMSTYANECTLCMKIREGGHNIKIIRNGPC
notes: Expressed in E. coli Origami B (DE3) as thioredoxin/His fusion, thioredoxin tag cleaved by thrombin; mainly monomer; also called clone 2; not shown: vector-derived N-terminal residues left after thrombin cleavage of the pET 32a (varied) fusion, including the S-tag used
What is called EC50 is the midpoint of the concentration-response curve. Low readings indicate a more potent agent, high ones a less potent agent. For the molecule B1, in experiment [1], the EC50 was found to be 18.3 nM. In addition, the “IC50 of chymotrypsin inhibitory activity (Pierce Quantitative Protease Assay Kit)” value in experiment [2] stood at 815 nM.

B2: α-chymotrypsin-binding peptide No. 6 (SPINK2 mutant) (designed binder)
chain: DPQFGLFSKYRTPNCRRWLLPWCTYKYKPVCGSDMSTYANECTLCMKIREGGHNIKIIRNGPC
notes: Expressed in E. coli Origami B (DE3) as thioredoxin/His fusion, thioredoxin tag cleaved by thrombin; mainly monomer; also called clone 6; not shown: vector-derived N-terminal residues left after thrombin cleavage of the pET 32a (varied) fusion, including the S-tag used
In the case of B2, it took 17.8 nM to reach a half-maximal effect in experiment [1] (EC50). Further, the “IC50 of chymotrypsin inhibitory activity (Pierce Quantitative Protease Assay Kit)” value in experiment [2] came to 374 nM.
